Data reported in US20240360203A1.

Legend:
Assay in all cases: DELFIA on captured biotin-peptide
Design in all cases: unit not given beside the values
[1] = target: SARS-CoV-2 spike S2 peptide 1133-1147, biotinylated (SARS-CoV-2)
[2] = target: SARS-CoV-2 spike S2 peptide 1149-1163, biotinylated (SARS-CoV-2)
[3] = target: SARS-CoV-2 spike S2 peptide 1141-1155, biotinylated (SARS-CoV-2)
[4] = target: SARS-CoV-2 spike S2 peptide 1149-1167, biotinylated (SARS-CoV-2)
[5] = target: SARS-CoV-2 spike S2 peptide 1137-1151, biotinylated (SARS-CoV-2)
[6] = target: SARS-CoV-2 spike S2 peptide 1145-1159, biotinylated (SARS-CoV-2)
[7] = target: SARS-CoV-2 spike S2 peptide 1157-1171, biotinylated (SARS-CoV-2)
[8] = target: SARS-CoV-2 spike S2 peptide 1153-1167, biotinylated (SARS-CoV-2)
[9] = target: SARS-CoV-2 spike S2 peptide 1143-1162, biotinylated (SARS-CoV-2)

Substance: isotype control (palivizumab variable regions expressed as human IgG1 with LS mutation in the Fc region) (antibody)
- AUC [1]: 4060
- AUC [2]: 20500
- AUC [3]: 13300
- AUC [4]: 2600
- AUC [5]: 19300
- AUC [6]: 1520
- AUC [7]: 3110
- AUC [8]: 8120
- AUC [9]: 3110
